# Measured values as given in PMC9599254, “Human Milk Oligosaccharide Utilization in Intestinal Bifidobacteria Is Governed by Global Transcriptional Regulator NagR” (mSystems, 2022).
# Experiments:
# [1] = test system: NagR (Bifidobacterium longum subsp. infantis ATCC 15697 (= JCM 1222)); test: EMSA; details: no robust shift even at >500 nM NagR; 10 mM Tris-HCl pH 7.5, 50 mM KCl, 5 mM MgCl2, 2.25 mM DTT, 0.125% Tween 20, 2.5% glycerol; 1 nM probe, 0-2000 nM NagR, 60 min, room temperature; 6% gel, 0.5x …
# NagR = biological target: T1, NagR (Bifidobacterium longum, UniProt A0ACD7UQ49); test: EMSA, disruption of NagR-DNA complex; format: binding; details: 25 nM NagR, 1 nM IRD700-labelled hmoA operator probe; pH 7.5, 50 mM KCl, 5 mM MgCl2, room temperature; effector releasing DNA
# T1 construct: gene BLIJ_0896; full-length as described, N-terminal His tag, codon-optimized synthetic gene in in-house pET-49b(+), expressed in E. coli BL21(DE3), Ni-NTA purified; tag removal not mentioned
# T1 sequence (A0ACD7UQ49 36-409 limits assumed): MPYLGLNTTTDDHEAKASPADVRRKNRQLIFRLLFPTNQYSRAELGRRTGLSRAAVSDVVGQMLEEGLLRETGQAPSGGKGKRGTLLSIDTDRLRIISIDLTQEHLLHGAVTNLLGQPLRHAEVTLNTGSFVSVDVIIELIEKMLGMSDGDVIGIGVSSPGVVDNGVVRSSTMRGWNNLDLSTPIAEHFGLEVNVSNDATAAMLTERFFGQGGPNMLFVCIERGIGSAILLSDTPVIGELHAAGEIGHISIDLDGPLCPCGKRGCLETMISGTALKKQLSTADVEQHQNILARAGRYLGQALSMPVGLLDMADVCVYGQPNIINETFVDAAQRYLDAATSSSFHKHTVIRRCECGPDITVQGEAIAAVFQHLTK
Compound,K half [1] [nM],EC50 (NagR) [µM]
GGGCCTGATGCAAATATGTTAAGGCTGTTGACAGTGCTGGCTCCCGTAC (double strand) [hmoA6 probe],> 500,–
CC(=O)N[C@H]1C(O)O[C@H](CO)[C@@H](O)[C@@H]1O (stereo partly shown) [GlcNAc],–,330 ± 50
ATTTCGTCGTTGAAATTGTTATGAAACTTCACCAATAAATTCCAGTGTA (double strand) [nagB_II probe],> 500,–
CC(=O)N[C@H]1[C@@H](OP(=O)(O)O)O[C@H](CO)[C@@H](O)[C@@H]1O [GlcNAc-1P],–,490 ± 60
